The text below walks through data of patent publication US20220041711A1 (NGM BIOPHARMACEUTICALS, published 2022).

Read-outs that look alike come from different tables or passages of the source.

Sequences and labels used below:
T1: human MARCO expressed on cells (721.221-MARCO, 293T-MARCO) (human, UniProt Q9UEW3 1-520)
T1 construct: also called 721.221 cells expressing MARCO
T1 sequence: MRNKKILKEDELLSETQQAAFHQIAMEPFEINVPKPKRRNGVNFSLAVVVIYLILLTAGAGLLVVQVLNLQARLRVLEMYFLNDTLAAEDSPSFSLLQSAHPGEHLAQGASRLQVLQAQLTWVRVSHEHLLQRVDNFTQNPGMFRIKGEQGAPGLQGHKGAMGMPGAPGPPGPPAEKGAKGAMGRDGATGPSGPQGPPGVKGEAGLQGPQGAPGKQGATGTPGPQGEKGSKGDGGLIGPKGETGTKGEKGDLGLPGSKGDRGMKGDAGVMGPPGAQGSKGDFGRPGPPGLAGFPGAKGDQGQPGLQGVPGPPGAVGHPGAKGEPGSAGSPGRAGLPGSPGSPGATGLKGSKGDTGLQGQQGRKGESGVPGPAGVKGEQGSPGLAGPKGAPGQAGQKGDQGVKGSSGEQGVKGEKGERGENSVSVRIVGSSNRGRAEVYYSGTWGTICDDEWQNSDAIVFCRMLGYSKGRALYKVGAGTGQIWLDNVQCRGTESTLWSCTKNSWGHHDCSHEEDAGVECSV

T2: mouse LAIR-1 (form in the assay not stated) (mouse, UniProt Q8BG84 22-144, limits assumed)
T2 sequence: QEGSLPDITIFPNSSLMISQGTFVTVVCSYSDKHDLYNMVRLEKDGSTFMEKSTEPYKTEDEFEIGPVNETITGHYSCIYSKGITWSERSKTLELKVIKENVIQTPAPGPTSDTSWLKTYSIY

T3: human LAIR-1-ECD (human, UniProt Q6GTX8 22-165)
T3 construct: Recombinant, expressed in mammalian cells; also called extracellular region of human LAIR-1
T3 chain: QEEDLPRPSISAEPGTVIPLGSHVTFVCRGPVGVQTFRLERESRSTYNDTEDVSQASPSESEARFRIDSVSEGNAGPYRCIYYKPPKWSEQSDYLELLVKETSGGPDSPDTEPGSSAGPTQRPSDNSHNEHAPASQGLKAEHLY

T4: cyno LAIR-1-ECD (cynomolgus monkey)
T4 construct: Recombinant, expressed in mammalian cells; also called extracellular region of cyno LAIR-1
T4 chain: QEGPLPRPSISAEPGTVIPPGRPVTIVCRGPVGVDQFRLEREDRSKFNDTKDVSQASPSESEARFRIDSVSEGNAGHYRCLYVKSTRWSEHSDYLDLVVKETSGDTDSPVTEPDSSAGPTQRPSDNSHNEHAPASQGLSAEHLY

T5: human LAIR-1b (alternative isoform of human LAIR-1) on transfected 293T cells (human, UniProt Q6GTX8 22-287)
T5 chain: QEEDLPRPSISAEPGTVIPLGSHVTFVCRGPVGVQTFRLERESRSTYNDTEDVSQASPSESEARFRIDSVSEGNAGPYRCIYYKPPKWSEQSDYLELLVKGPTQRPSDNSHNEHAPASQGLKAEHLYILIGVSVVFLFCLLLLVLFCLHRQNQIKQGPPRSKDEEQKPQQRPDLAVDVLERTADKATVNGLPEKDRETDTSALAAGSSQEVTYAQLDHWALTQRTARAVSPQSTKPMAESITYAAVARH

B1: LAIR-2-Fc (Fc fusion)
chain: QEGALPRPSISAEPGTVISPGSHVTFMCRGPVGVQTFRLEREDRAKYKDSYNVFRLGPSESEARFHIDSVSEGNAGLYRCLYYKPPGWSEHSDFLELLVKESSGGPDSPDTEPGSSAGTVPGTEASGFDAP
notes: LAIR-2 soluble protein fused to a Fc region; also called human LAIR-2-Fc; not shown: a Fc region
B2: humanized anti-LAIR-1 antibody Hz47H1.v4 (antibody, human IgG1, kappa, N297G, V domains shown)
VH: EVQLVESGGGLVQPGGSLRLSCAASGFTFNINAMNWVRQAPGKGLEWVARIRTKNYNYATFYADSVKDRFTISRDDSKNSLYLQMNSLKTEDTAVYYCVRDRAGFFAYWGQGTTVTVSS
VL: DIQMTQSPSSLSASVGDRVTITCLASQTIGTWLGWYQQKPGKAPKLLIYAATSLAEGVPSRFSGSGSGTDFTLTISSLQPEDFATYYCQQLYSTPLTFGGGTKVEIKR
notes: Humanized 47H1 with reengineered VH CDR2 and VL CDR2
B3: human LAIR-1-Fc (Fc fusion)
chain: T3 chain
notes: also called biotinylated human LAIR-1-Fc; not shown: a Fc region
B4: anti-LAIR-1 antibody ch62G10 (antibody, V domains shown)
VH: EVQLVETGGGLVQPKGSLKLSCATSGFTFNINAMNWVRQAPGKGLEWVARIRTKNNNFATYYADSVKDRFTISRDDSQSMLYLQMNNLKTEDTAMYYCVRGPYFDYWGQGTTLTVSS
VL: DIQMTQSPASQSASLGESVTITCLASQTIGTWLAWYQQKPGKSPQLLIYAATSLADGVPSRFSGSGSGTKFSFKISNLQAEDFVTYYCQQLYSTPYTFGGGTKLEIK
notes: The prefix 'ch' is not defined

In assay [1] the target is T1, human MARCO expressed on cells …. As to the kind of experiment: flow cytometry, Fc protein at 10 µg/mL on 721.221 cells expressing MARCO, PE anti-Fc secondary.
For assay [2], the target named is T2, mouse LAIR-1 (form in the assay not …). As to the kind of experiment: not described.
Assay [3] concerns the target T6, human LAIR-1-CD3ζ chimeric receptor on NFAT-GFP reporter cells (human, UniProt P20963 31-164, limits assumed). The experiment in a line: cell-based or functional assay.
Another assay deals with T3, human LAIR-1-ECD. As to the kind of experiment: SPR (Biacore) as in Example 2. In general terms: Surface plasmon resonance follows binding to a sensor surface in real time, without labels.
For another assay, the target named is T4, cyno LAIR-1-ECD. The experiment in a line: SPR (Biacore) as in Example 2.
For assay [4], the target named is T6, human LAIR-1-CD3ζ chimeric receptor on …. As to the kind of experiment: cell-based or functional assay. This is another data set of the same source.
Target sequence in this assay (P20963 other isoform, or with tags, fused parts or gaps mutant limits assumed): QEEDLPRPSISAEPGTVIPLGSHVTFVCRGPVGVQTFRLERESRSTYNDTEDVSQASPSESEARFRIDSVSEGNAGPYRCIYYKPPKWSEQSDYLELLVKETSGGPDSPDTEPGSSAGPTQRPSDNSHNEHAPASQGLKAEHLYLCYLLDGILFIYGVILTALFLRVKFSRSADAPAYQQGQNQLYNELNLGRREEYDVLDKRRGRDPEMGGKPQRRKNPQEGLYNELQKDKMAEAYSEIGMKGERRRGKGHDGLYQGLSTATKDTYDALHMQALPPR
The target in assay [5] is T7, cyno LAIR-1-CD3ζ chimeric receptor on NFAT-GFP reporter cells (cynomolgus monkey; human). The experiment in a line: cell-based or functional assay.
Target sequence in this assay (P20963 other isoform, or with tags, fused parts or gaps mutant limits assumed): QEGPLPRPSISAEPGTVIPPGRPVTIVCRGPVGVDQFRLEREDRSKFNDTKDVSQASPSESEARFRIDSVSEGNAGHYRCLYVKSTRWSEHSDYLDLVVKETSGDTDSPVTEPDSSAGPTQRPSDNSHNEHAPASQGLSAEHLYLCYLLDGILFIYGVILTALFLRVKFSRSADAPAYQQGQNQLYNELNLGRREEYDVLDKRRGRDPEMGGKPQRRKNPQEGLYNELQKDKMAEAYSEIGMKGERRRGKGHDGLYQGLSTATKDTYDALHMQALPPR
In assay [6] the target is T7, cyno LAIR-1-CD3ζ chimeric receptor on …. The experiment in a line: cell-based or functional assay. The source holds these as a separate data set.
Assay [7] shares this target. As to the kind of experiment: cell-based or functional assay. The source holds these as a separate data set.
The target in assay [8] is T6, human LAIR-1-CD3ζ chimeric receptor on …. The experiment in a line: flow cytometry on human LAIR-1 reporter cells, PE anti-human Fc secondary, MFI (panel Human LAIR1 Cells).
In assay [9] the target is T7, cyno LAIR-1-CD3ζ chimeric receptor on …. As to the kind of experiment: flow cytometry on cyno LAIR-1 reporter cells, PE anti-human Fc secondary, MFI (panel Cynomolgus Monkey LAIR1 Cells). On the technique in general: In flow cytometry, cells or beads pass a laser one at a time.
Assay [10] has as its target T5, human LAIR-1b (alternative isoform of …). As to the kind of experiment: flow cytometry on cells expressing human LAIR-1b, PE anti-human Fc secondary, MFI (panel Human LAIR1 (Truncated) Cells).
The target of the assay “human LAIR-1-Fc” is B3. As to the kind of experiment: ELISA blocking: plate coated with 5 µg/mL human collagen type 1, antibody titrated, 1 µg/mL biotinylated human LAIR-1-Fc, streptavidin-HRP, OD650. A general note: In an ELISA, binding on a coated surface is turned into a signal by an enzyme label.
Assay [11] addresses T6, human LAIR-1-CD3ζ chimeric receptor on …. As to the kind of experiment: cell-based or functional assay. The source holds these as a separate data set.
Assay [12] shares this target. The experiment in a line: cell-based or functional assay. This is another data set of the same source.
The target is the same in assay [13]. As to the kind of experiment: cell-based or functional assay. The source holds these as a separate data set.

As for B1, the binding result in [1] is recorded as “binds”.
One may read the Kd as a measure of binding affinity in units of concentration. Usually koff stands for the rate constant with which the complex falls apart. Usually kon stands for the second-order rate constant of association. As a reminder, the EC50 (read off the curve) is the concentration needed to bring the measured effect to its halfway point. As for B2, the binding result in [2] is reported as “no binding”. In assay [3], the “IC50 (M), reporter cell assay, ligand COLEC12” value came to 1.2e-11 M; the “IC50 (M), reporter cell assay, ligand Collagen 1” value is 3.2e-11 M; the “IC50 (M), reporter cell assay, ligand Collagen 4” value was found to be 3.2e-11 M; the “IC50 (M), reporter cell assay, ligand MARCO” value amounted to 3.2e-11 M. Also, in assay [3], the “IC50 (M), reporter cell assay, ligand MBL” value was 4.2e-11 M; the “IC50 (M), reporter cell assay, ligand Polymerized Collagen Matrix” value is 3e-11 M; the “IC50 (M), reporter cell assay, ligand SPD” value came to 2e-11 M; the “IC50 (M), reporter cell assay, ligand Tumor Cell Collagens” value came out at 1.6e-11 M. Also, in the assay with human LAIR-1-ECD, the dissociation constant (Kd) was determined as 0.26 nM, the off-rate constant (koff) came to 0.0006 s⁻¹ and the kon was determined as 2.3e+06 M⁻¹ s⁻¹. Further, in the assay with cyno LAIR-1-ECD, the Kd turned out to be 4.3 nM, the off-rate constant (koff) turned out to be 0.0016 s⁻¹ and the kon came out at 390000 M⁻¹ s⁻¹. In assay [4], the “IC50 (read off the curve): % GFP+ human LAIR-1 reporter cells on coated MARCO-his” value was approximately 0.02 nM, the “IC50 (read off the curve): % GFP+ human LAIR-1 reporter cells on coated collagen 1” value is approximately 0.02 nM and the “IC50 (read off the curve): % GFP+ human LAIR-1 reporter cells on coated collagen 4” value is approximately 0.02 nM. Moreover, in [5], the “IC50 (read off the curve): % GFP+ cyno LAIR-1 reporter cells on coated MARCO-his” value is approximately 0.06 nM, the “IC50 (read off the curve): % GFP+ cyno LAIR-1 reporter cells on coated collagen 1” value is approximately 0.1 nM and the “IC50 (read off the curve): % GFP+ cyno LAIR-1 reporter cells on coated collagen 4” value is approximately 0.08 nM. Besides, in assay [6], the “IC50 (read off the curve): % GFP+ cyno LAIR-1 reporter cells co-cultured with bEnd.3 cells” value is approximately 0.1 nM. Besides, in [7], the “IC50 (read off the curve): % GFP+ cyno LAIR-1 reporter cells on polymerized collagen matrix” value was approximately 0.09 nM. Further, the “EC50 (read off the curve)” value in assay [8] is approximately 0.2 nM. Besides, the “EC50 (read off the curve)” value in assay [9] is approximately 1 nM. In assay [10], the half-maximal effective concentration (EC50 (read off the curve)) was approximately 2 nM. Also, the “IC50 (read off the curve)” value with human LAIR-1-Fc was approximately 3 nM.
With B3, the binding result in [1] is “binds”.
In the case of B4, in the assay with human LAIR-1-ECD, the Kd was 0.9 nM, the koff is 0.00069 s⁻¹ and the kon was 770000 M⁻¹ s⁻¹. In the assay with cyno LAIR-1-ECD, the Kd came to 16 nM, the off-rate constant (koff) worked out at 0.0043 s⁻¹ and the kon stood at 280000 M⁻¹ s⁻¹. Further, in assay [11], the “IC50 (read off the curve): % GFP+ human LAIR-1 reporter cells on coated MARCO-his” value was approximately 0.07 nM, the “IC50 (read off the curve): % GFP+ human LAIR-1 reporter cells on coated collagen 1” value was approximately 0.1 nM and the “IC50 (read off the curve): % GFP+ human LAIR-1 reporter cells on coated collagen 4” value was approximately 0.1 nM. In addition, in assay [4], the “IC50 (read off the curve): % GFP+ human LAIR-1 reporter cells on coated MARCO-his” value is approximately 0.06 nM, the “IC50 (read off the curve): % GFP+ human LAIR-1 reporter cells on coated collagen 1” value is approximately 0.04 nM and the “IC50 (read off the curve): % GFP+ human LAIR-1 reporter cells on coated collagen 4” value is approximately 0.03 nM. In assay [5], the “IC50 (read off the curve): % GFP+ cyno LAIR-1 reporter cells on coated MARCO-his” value was approximately 0.2 nM, the “IC50 (read off the curve): % GFP+ cyno LAIR-1 reporter cells on coated collagen 1” value is approximately 0.4 nM and the “IC50 (read off the curve): % GFP+ cyno LAIR-1 reporter cells on coated collagen 4” value was approximately 0.2 nM. Moreover, the “IC50 (read off the curve): % GFP+ human LAIR-1 reporter cells co-cultured with bEnd.3 cells” value in assay [12] is approximately 0.04 nM. Further, in [6], the “IC50 (read off the curve): % GFP+ cyno LAIR-1 reporter cells co-cultured with bEnd.3 cells” value is approximately 0.2 nM. The “IC50 (read off the curve): % GFP+ human LAIR-1 reporter cells on polymerized collagen matrix” value in assay [13] was approximately 0.03 nM. Besides, in assay [7], the “IC50 (read off the curve): % GFP+ cyno LAIR-1 reporter cells on polymerized collagen matrix” value is approximately 0.2 nM. Besides, the “IC50 (read off the curve)” value in the assay with human LAIR-1-Fc is approximately 3 nM.
